The values below come from publication PMC9829383.

The assay deals with Ecad ectodomain K14E mutant. In words: single-molecule AFM dynamic force spectroscopy.

For the substance “Ecad ectodomain K14E mutant (domain or fragment)”, the koff is 0.78 s⁻¹.
